Measurements as given in a protein production outcome set (Wang et al. 2014).

Assay: label from the status in PepcDB records
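Note: failed if final PepcDB status was selected cloned or expressed and not failed if soluble or beyond.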

Sequence	protein production
MRPLISICMIVKNEAHILRQSLASFRKFTEEIIIVDTGSTDDTKEIAKEFTDFVYDFEWTGNFSDARNFAAKHATGKWILAIDADECLEEESYRKLEKQLKSPIEPIQMAQIISFTGEKGRVTTTNQMARVYKNDGTICFRGVIHEQLEAVDKHAIEAGLAEVKIYHYGYMSEIVEKQDKSDRNLRLLEKEVKNNKNSGFVHFNIGQEMNRLGNKKEALKEFSEAFRLRDNNHYIWAKLSAYHISELLEQEKRYDESLAIIEEAKVIWPNVPEFPLKKANILYVNHQLEDAKEIYKSLLENTAIDYQPIVLYEATNFMPHKMLGTIYLEEKDYTRAMTHFSKAYAENSSDYGVMFQMIMLLSKFHQPKEIFAFMERHNFISSTETGLRLLSMTTQQGYAELSELIVQSLTDVYPPVAEATEVKIATIRNVFPVISESAILFGIKEELIDAADLCLWHYENPQLPIERVMKNSDVGEIYDFIFENGPKISKKRYLFVLERAIALGKGEFADYLLALRNVYHDSINSHIADLFFQYDFADIALDFYNIVDADEVTKQGYINLINYLVDADVLDEALAIAERGIDNFSTDFRFYLWAIKIDTENRANRISEAMDEFPNNRYLAKLLDEVTMLQDTVTNNR	failed
MSTIFDTHWPWMGIGIACVLIILLFFTNTLRSDLRVNRWYDPFWLAWFSSTAYFIHNFEEYGIDLFGRHFEFPHLMTQTMHITPEISFFTMINIPLIWIAGPILAMMSKHRPVISLIMTGLMFTNALSHIVPLISSGMYTSGLFTSIVIFIPGSLWIYYIRFIKGNLRWSILIVSLIPPIITQGLLMLSILMYRNDFLNDTTVTVFELLNGCLFIIIAFIMEKSFKRKYKN	failed
IAQIPVSVYWMNKNHVYMGCSNNMVKLLNLNSRYDIVGKTYEDLYHEKSTSYYKKADKIVMDKGISLSLEEPFYCPDGTTKEIYLSNKVPLRDLEGKIIGMLGVSVDIT	failed
MVEENQLQSLKDVAKQAPVHRKLDIQEWKTAEGAKVLFVEAHELPMFDLRLTFAAGSSQDAGTPGLSMLTNAMLNEGVPGKDTTAIAAGFEDLGASFSNGSYRDMAVAGLRSLSEADKRTQALKLFEQVIGQPTFPEDALARIKNQVLAGFEYQKQNPGKLAGLELFKRLYGEHPYAHSSDGDEKSVPTISREQLQAFHKKAYAAGNVVIALVGDLSRQEAEAIAAEVSKALPQGPALAKTVQPETPKPGLTHIDFPSEQTHLMLAQLGIDRQDPDYAALYLGNQILGGGGFGTRLMDQVREKRGLTYGIYSGFTAMQARGPFMINFQTRAELSEGALKLVQDIVRDYLANGPTQKELDDAKRELAGSFPLSTASNADIVGQLGAIGFYGLPLDYLESFLKQVEGLSVEQVRTAMAKHLDADAFVIVSAGLEHHHHHH	not failed
MTASTAPQTEPHKTSAPESGPVMLLVATIKGAWFLASDPARRTWELRGPVFLGHTIHHIVQDPREPERMLMAARTGHLGPTVFRSDDGGGNWTEATRPPAFNKAPEGETGRVVDHVFWLTPGHASEPGTWYAGTSPQGLFRSTDHGASWEPVAGFNDHPMRRAWTGGEQDGTPDGPKMHSILVDPRDPKHLYIGMSSGGVFESTDAGTDWKPLNRGCAANFLPDPNVEFGHDPHCVVQHPAAPDILYQQNHCGIYRMDRREGVWKRIGDAMPREVGDIGFPIVVHQRDPRTVWVFPMDGSDVWPRVSPGGKPAVYVTRDAGESWQRQDRGLPTDQAWLTVKRQAMTADAHAPVGVYFGTTGGEIWASADEGEHWQCIASHLPHIYAVQSARPV	not failed
MSATGIKRSNLNTRPVQRDASAKQTAIKGPYGKSPGCTTSCGLRLPRKTEVTAAKLIKHLGCKFAKGLRLVVMRKKKRSPPSKVSSFSGRSQPPIIPINNDSHRSEAIEDCIQFINSSSSFTRSNSTS	failed
MEGIMNPYTALPTPQQLLAIEQSVYSSDPFRQGLTPPQMPGDHMHPYGAEPLFHDLDSDDTSLSNLGDCFLATSEAGPLQSRVGNPIDHLYSMQNSYFTS	not failed
MKYSEAQQGRVFVIRLEDGDIFHEEIERFAKEKGIERAYLNVVGGADKESKLVVGPEESRTYPVNPMEHELYDAHEIVGTGTLFPDDTSAPVVHLHMACGREENTVTGCVRNGVKVWHVMEVILVELLGTQARRLPDKATGFKLLVPLEHHHHHH	not failed
MLEKSLAILFALLILATLINRFLVWRLPERKGDEVTLRIRTWWGIVICFSLVISGPRWMTLTFFALISFLALKEYCTLISVHFPRWLYWVIPLNYLLIGFNCFELFLLFIPLAGFLILATWRVFVGDPSGFLHTVSAIFCGWIMTVFTLSHAAWLLMLPTINIQGGALLVLFLLALTESNDIAQYLWGKSCGRRKVVPKVSPGKTLEGLVGGVITTMIASLIIGPLLTPLNTLQVLLAGLLIGISGFCGDVVMSATKRDVGVKDSGKLLPGHGGLLDRIDSLIFTAPVFFYFIRYCCY	failed
MAGGHCGSFAAAAASSGEIVQLNVGGTRFSTSRQTLMWIPDSFFSSLLSGRISTLRDETGAIFIDRDPAAFAPILNFLRTKELDLRGVSINVLRHEAEFYGITPLVRRLLLCEELERSSCGSVLFHGYLPPPGIPSRKGTNTARSSVDARNGLSSMEGEARGSGTQPVLAGNGEDTIRLVDKLSVESWPVGVPVDPRKVLIVAGHHNWIVAAYAHFAVCYRIKESSGWQQVFTSPYLDWTIERVALNAKVVGGPHGDKDKMVAVASESSIILWSVQDGGSGSEIGVFSLGVPVDALFFIGNQLVATSHTGKVGVWNAVTQHWQVQDVVPITSYDTAGSFLLLGCNNGSIYYIDMQKFPLRMKDNDLLVTELYHDPSNDAITALSVYLTPKTSVSGNWIEIAYGTSSGAVRVIVQHPETVGSGPQLFQTFTVHRSPVTKIMLSEKHLVSVCADNNHVRTWTVTRFRGMISTQPGSTPLASFKILSLKRQRATAAIPLEMTSGLLENEMINKCLSRRLFPSPTSCLSGCHRLEKGYVRSRLWTALQSPRSLXESARAPAGWAPGQGATCSLATPTAASRCGTXPQPWTWSTRARTRTQAAPLRKSCSSCWTSVIXARPAAPRPTSALPPLCSSTAAFVSPAPAFSSSTTKPSMKQQPMVPRGLTERALCXPEQGGLRASTATGTCRLSISTELXRELSLRMVTRAQPRLRQKGQQQGSVLCVRGSPRGQREDVXGSPMWAXTCTDQRKVCQSPRKGQQRMKMSPKWSSGRKDSKQGDSLEERKFPIWHPHQVPLMEGPTPLVQHPRLQLRPLRHLGTERATPLARSTAC	failed
MNIYDQLQAVEDRYEELGELLSDPDVVSDTKRFMELSREEANSRETVAVYREYKQVVQNIADAQEMIKDASGDPELEEMAKEELKNSKVAKEEYEEKLRFLLLPKDPNDDKNIILEIRGAAGGDEAALFAGDLLNMYQKYAENQGWKFEVMEASANGVGGLKEVVAMVSGQSVYSKLKYESGAHRVQRVPVTESQGRVHTSTATVLVMPEVEEVEYEIDPKDLRVDIYHASGAGGQNVNKVATAVRIIHLPTNIKVEMQEERTQQKNRDKAMKIIRARVADHFAQIAQDEQDAERKSTVGTGDRSERIRTYNFPQNRVTDHRIGLTLQKLDSILSGKLDEVIDALILYDQTQKLEELNK	not failed
MFAMPTFELDALTTLALALILLGVGAQLKKRSRWLTQLCVPAPVIGGFGFALIVWLLRDQQLLAIKLDTAIQTPLMVAFFTTVGLGGSLGLLRRGGKILFVYLGACWSLALLQNLVGVGAAKALGIDPLLGIMAGAVSLEGGFGAAAAFGPIAENLGAVGATTAALASATFGMVAGGLLGSPLARWLIERNRLQIQADQVSTLQHLESAAQGSVAPLDAPTLLRLLTCILLIMVLGFWIGSALNEHLGIVLPSYVGAMFVAIILRNLNDRARIIDIPDSAVSTLGDVCLGVFLTMAMMSLKFWELEQLGLPLLVILVVQVLVMVLLCVFLLFRLFGGNYDAAVLCAGFMGHGLGATPNAVANMGAICDHYKVFSYKAFIIVPLCGAVLIDIVAIPLITWFINAFA	failed
MLGGTAPKIAKAYQKTLTTNLNDVKNRLKDVTFKPKVLHFVNATNLNQVDGTGTIVNEWIKAAGGQNALKQKGNMISVTTETLAKSDPDVIIVGSATTAEARAALKKNAVLSKLTAVKKNRVYGNPQGTFPWDRYSAEEALQVLWAAKKLHPDQFQLEHHHHHH	not failed
